Publication PMC6443190, “Regulation of anthocyanin accumulation via MYB75/HAT1/TPL-mediated transcriptional repression” (PLoS Genetics, 2019)

T1: MBP-HAT1 (Arabidopsis thaliana, UniProt P46600 1-282)
T1 construct: HAT1, Arabidopsis thaliana, At4g17460; full-length, in pMALc-B; pMALc-B; also called full-length HAT1
T1 sequence (looked up): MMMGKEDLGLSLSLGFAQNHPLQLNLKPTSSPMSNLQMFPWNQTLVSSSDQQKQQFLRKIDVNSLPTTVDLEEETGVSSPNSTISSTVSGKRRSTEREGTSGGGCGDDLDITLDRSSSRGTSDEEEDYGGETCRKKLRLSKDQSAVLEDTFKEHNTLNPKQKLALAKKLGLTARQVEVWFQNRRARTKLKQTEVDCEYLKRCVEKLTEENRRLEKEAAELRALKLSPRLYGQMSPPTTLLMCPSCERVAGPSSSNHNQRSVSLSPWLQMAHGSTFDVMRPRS

T2: MBP-TT8 (Arabidopsis thaliana, UniProt Q9FT81 1-518)
T2 construct: TT8, Arabidopsis thaliana, At4g09820; pMAL-C2X
T2 sequence (looked up): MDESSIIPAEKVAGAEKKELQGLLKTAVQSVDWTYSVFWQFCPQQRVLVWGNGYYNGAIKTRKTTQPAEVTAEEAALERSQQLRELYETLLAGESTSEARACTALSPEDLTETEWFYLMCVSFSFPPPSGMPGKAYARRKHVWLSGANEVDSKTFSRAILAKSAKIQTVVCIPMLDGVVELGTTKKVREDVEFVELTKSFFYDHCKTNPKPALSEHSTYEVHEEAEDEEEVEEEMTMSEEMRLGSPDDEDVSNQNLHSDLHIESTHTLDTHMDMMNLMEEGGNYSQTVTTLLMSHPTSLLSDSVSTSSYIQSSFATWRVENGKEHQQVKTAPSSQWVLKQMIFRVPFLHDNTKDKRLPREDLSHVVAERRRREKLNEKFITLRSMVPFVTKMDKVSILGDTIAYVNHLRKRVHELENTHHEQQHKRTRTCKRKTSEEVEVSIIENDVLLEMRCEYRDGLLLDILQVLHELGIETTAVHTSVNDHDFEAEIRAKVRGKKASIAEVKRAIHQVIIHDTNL

T3: MBP-EGL3 (Arabidopsis thaliana, UniProt Q9CAD0 1-596)
T3 construct: EGL3, Arabidopsis thaliana, At1g63650; pMAL-C2X
T3 sequence (looked up): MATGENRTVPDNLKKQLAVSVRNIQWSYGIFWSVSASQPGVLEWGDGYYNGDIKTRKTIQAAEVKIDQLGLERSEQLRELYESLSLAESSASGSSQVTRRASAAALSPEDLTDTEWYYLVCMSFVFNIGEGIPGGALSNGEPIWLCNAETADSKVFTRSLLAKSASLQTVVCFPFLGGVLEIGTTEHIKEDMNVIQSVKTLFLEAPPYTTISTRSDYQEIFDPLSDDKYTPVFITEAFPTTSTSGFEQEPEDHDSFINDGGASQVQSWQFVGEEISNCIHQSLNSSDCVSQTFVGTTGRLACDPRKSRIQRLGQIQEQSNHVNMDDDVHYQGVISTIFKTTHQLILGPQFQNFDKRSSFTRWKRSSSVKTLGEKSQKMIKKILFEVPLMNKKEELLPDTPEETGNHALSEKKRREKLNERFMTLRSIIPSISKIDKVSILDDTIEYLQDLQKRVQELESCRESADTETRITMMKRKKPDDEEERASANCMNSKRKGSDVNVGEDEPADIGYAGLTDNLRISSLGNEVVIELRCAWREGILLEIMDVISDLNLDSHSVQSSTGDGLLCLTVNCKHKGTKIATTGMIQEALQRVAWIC

T4: HIS-HAT1 (Arabidopsis thaliana, UniProt P46600 1-282)
T4 construct: HAT1, Arabidopsis thaliana, At4g17460; full-length, in pET28a; pET28a; also called full-length HAT1
T4 sequence (looked up): T1 sequence (looked up)

B1: HIS-MYB75 (natural protein, Arabidopsis thaliana, UniProt Q9FE25 1-248, looked up)
chain: MEGSSKGLRKGAWTTEEDSLLRQCINKYGEGKWHQVPVRAGLNRCRKSCRLRWLNYLKPSIKRGKLSSDEVDLLLRLHRLLGNRWSLIAGRLPGRTANDVKNYWNTHLSKKHEPCCKIKMKKRDITPIPTTPALKNNVYKPRPRSFTVNNDCNHLNAPPKVDVNPPCLGLNINNVCDNSIIYNKDKKKDQLVNNLIDGDNMWLEKFLEESQEVDILVPEATTTEKGDTLAFDVDQLWSLFDGETVKFD
notes: MYB75, Arabidopsis thaliana, At1g56650; full-length, in pET28a; pET28a; also called full-length MYB75
B2: MBP-MYB75 (natural protein, Arabidopsis thaliana, UniProt Q9FE25 1-248, looked up)
chain: B1 chain
notes: MYB75, Arabidopsis thaliana, At1g56650; full-length, in pMAL-C2X; pMAL-C2X; also called full-length MYB75
B3: HAT1 C-terminal fragment (pull-down fragment) (domain or fragment, Arabidopsis thaliana, UniProt P46600 234-282, looked up)
chain: SPPTTLLMCPSCERVAGPSSSNHNQRSVSLSPWLQMAHGSTFDVMRPRS
notes: HAT1, Arabidopsis thaliana, At4g17460; also called C-terminus of HAT1; not shown: 6xHis (inferred from the set-up of the methods)

What was measured:
Conditions in all cases: both partners purified
MBP-HAT1 = biological target: T1, MBP-HAT1; assay: pull-down; Ni-NTA beads with 5 ug HIS protein incubated with 5 ug MBP protein; 150 mM NaCl, 20 mM Tris, 0.2% Triton X-100, pH 8.0, 4 C, 2 h; anti-MBP blot
MBP-TT8 = biological target: T2, MBP-TT8; assay: pull-down; competitive HIS pull-down: 5 ug MBP-TT8 or MBP-EGL3 mixed with 5, 10 or 20 ug HIS-HAT1, on Ni-NTA beads with 5 ug HIS-MYB75; 150 mM NaCl, 20 mM Tris, 0.2% Triton X-100, pH 8.0, 4 C, 2 h; anti-MBP blot
MBP-EGL3 = biological target: T3, MBP-EGL3; assay: as above
HIS-HAT1 [1] = biological target: T4, HIS-HAT1; assay: as above
HIS-HAT1 [2] = biological target: T4, HIS-HAT1; assay: pull-down; Ni-NTA beads with 5 ug HIS protein incubated with 5 ug MBP protein; 150 mM NaCl, 20 mM Tris, 0.2% Triton X-100, pH 8.0, 4 C, 2 h; anti-MBP blot
MBP-MYB75 = biological target: B2; assay: as above

Binder: B1
binding result (MBP-HAT1): binds
binding result (MBP-TT8): binds
binding result (MBP-EGL3): binds
binding result (HIS-HAT1 [1]): binds

Binder: B2
binding result (HIS-HAT1 [2]): binds

Binder: B3
binding result (MBP-MYB75): binds
